{"source": "paper PMC3792479", "about": "(Genes & Development, 2013)", "binders": {"B1": {"name": "CED-3 (residues 198–503 and C358S) (domain or fragment, C. elegans, UniProt P42573 198-503, looked up)", "chain": "NRSFSKASGPTQYIFHEEDMNFVDAPTISRVFDEKTMYRNFSSPRGMCLIINNEHFEQMPTRNGTKADKDNLTNLFRCMGYTVICKDNLTGRGMLLTIRDFAKHESHGDSAILVILSHGEENVIIGVDDIPISTHEIYDLLNAANAPRLANKPKIVFVQASRGERRDNGFPVLDSVDGVPAFLRRGWDNRDGPLFNFLGCVRPQVQQVWRKKPSQADILIAYATTAQYVSWRNSARGSWFIQAVCEVFSTHAKDMDVVELLTEVNKKVACGFQTSQGSNILKQMPEMTSRLLKKFYFWPEARNSAV"}, "B2": {"name": "two-chain CED-3 (residues 198–374, 389–503, and C358A) (domain or fragment, C. elegans)", "chain 1": "NRSFSKASGPTQYIFHEEDMNFVDAPTISRVFDEKTMYRNFSSPRGMCLIINNEHFEQMPTRNGTKADKDNLTNLFRCMGYTVICKDNLTGRGMLLTIRDFAKHESHGDSAILVILSHGEENVIIGVDDIPISTHEIYDLLNAANAPRLANKPKIVFVQAARGERRDNGFPVLDSVD", "chain 2": "GPLFNFLGCVRPQVQQVWRKKPSQADILIAYATTAQYVSWRNSARGSWFIQAVCEVFSTHAKDMDVVELLTEVNKKVACGFQTSQGSNILKQMPEMTSRLLKKFYFWPEARNSAV"}, "B3": {"name": "two-chain caspase domain of CED-3 (residues 198–374, 389–503, and C358S) (domain or fragment, C. elegans)", "chain 1": "B2 chain 1 with A161S", "chain 2": "B2 chain 2"}, "B4": {"name": "two-chain CED-3 with partial deletion of the L2 loop (residues 365–374) (domain or fragment, C. elegans)", "chain 1": "NRSFSKASGPTQYIFHEEDMNFVDAPTISRVFDEKTMYRNFSSPRGMCLIINNEHFEQMPTRNGTKADKDNLTNLFRCMGYTVICKDNLTGRGMLLTIRDFAKHESHGDSAILVILSHGEENVIIGVDDIPISTHEIYDLLNAANAPRLANKPKIVFVQAARGERRD", "chain 2": "B2 chain 2"}}, "key": {"[1]": {"molecular_target": "T1, CED-4 apoptosome (full-length wild-type CED-4) (C. elegans, UniProt P30429 1-549)", "T1 sequence (looked up)": "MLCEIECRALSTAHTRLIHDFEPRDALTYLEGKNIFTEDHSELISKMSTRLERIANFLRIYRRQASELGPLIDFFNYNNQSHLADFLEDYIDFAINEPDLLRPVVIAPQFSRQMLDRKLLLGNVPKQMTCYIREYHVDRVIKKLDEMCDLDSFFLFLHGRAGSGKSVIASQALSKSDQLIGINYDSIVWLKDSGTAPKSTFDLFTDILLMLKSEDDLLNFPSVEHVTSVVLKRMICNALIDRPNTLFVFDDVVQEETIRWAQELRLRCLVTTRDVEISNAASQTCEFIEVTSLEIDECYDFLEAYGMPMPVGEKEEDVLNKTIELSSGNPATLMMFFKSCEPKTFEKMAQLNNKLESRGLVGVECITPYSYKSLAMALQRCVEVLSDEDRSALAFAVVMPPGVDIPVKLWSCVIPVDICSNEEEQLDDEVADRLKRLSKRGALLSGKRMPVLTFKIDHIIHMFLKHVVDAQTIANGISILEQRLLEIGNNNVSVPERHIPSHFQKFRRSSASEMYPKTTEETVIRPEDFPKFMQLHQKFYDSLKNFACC", "test": "crystal structure"}, "[2]": {"molecular_target": "T1, CED-4 apoptosome (full-length wild-type …)", "test": "SEC"}, "crystal structure": {"molecular_target": "the molecule itself", "test": "crystal structure"}}, "note": "Substitutions are numbered along the chain they refer to. In names and notes the source's numbering stands. Where no end group is shown, it is not given here. [ ]: non-standard residue; d: D form. SeMet = C[Se]CC[C@H](N)C(=O)O", "data": [{"binder": "GPLFNFLGCVRPQVQQVWRKK (peptide, UniProt P42573 389-409, looked up)", "note": "[CED-3 L2′ loop fragment (residues 389–409)]", "values": [{"measurement": "stoichiometry N", "setting": "[1]", "value": "8 L2′ loop fragments per CED-4 apoptosome"}]}, {"binder": "GP[SeMet]FNFLGCVRPQVQQVWRKK (peptide, UniProt P42573 389-409, looked up)", "note": "[CED-3 L2′ loop fragment (residues 389–409) with Leu391 replaced by selenomethionine]", "values": [{"measurement": "binding result", "setting": "[1]", "value": "binds"}]}, {"binder": "GPLFNF[SeMet]GCVRPQVQQVWRKK (peptide, UniProt P42573 389-409, looked up)", "note": "[CED-3 L2′ loop fragment (residues 389–409) with Leu395 replaced by selenomethionine]", "values": [{"measurement": "binding result", "setting": "[1]", "value": "binds"}]}, {"binder": "GP[SeMet]FNF[SeMet]GCVRPQVQQVWRKK (peptide, UniProt P42573 389-409, looked up)", "note": "[CED-3 L2′ loop fragment (residues 389–409) with Leu391 and Leu395 replaced by selenomethionine]", "values": [{"measurement": "binding result", "setting": "[1]", "value": "binds"}]}, {"binder": "B1", "values": [{"measurement": "binding result", "setting": "[2]", "value": "binds"}]}, {"binder": "B2", "values": [{"measurement": "binding result", "setting": "[2]", "value": "binds"}]}, {"binder": "B3", "values": [{"measurement": "stoichiometry N", "setting": "crystal structure", "value": 2}]}, {"binder": "B4", "values": [{"measurement": "binding result", "setting": "[2]", "value": "binds"}]}]}
